The values below come from patent US6670167.

The data set has as its system T1, Syntide-2, synthetic substrate peptide PLARTLSVAGLPGKK
T1 sequence: PLARTLSVAGLPGKK

As for “Proteolytically cleaved Chk1, preparation HA2-022”, the Activity result is reported as “+38 fold”, the Rate/min (/min (at 2 nM enzyme)) stood at 0.0208 and the activity comparison entry is on record as “the cleaved preparation was 38 fold more active than the non-cleaved preparation”.
